Experimental data reported in patent publication US5458874A, “Method of increasing monocyte chemotaxis with CAP37 and monocyte chemotactic portions thereof” (Emory University, priority 1992, dated 1995).
“Also recorded” adds a separate entry of the source.

Tests used:
human monocytes = experiment: Monocyte chemotaxis, modified Boyden chamber technique; type: cell-based; settings: for Distance migrated in μm: chemoattractant conc. 10^-9 M
Procedure: (§1) Chemotaxis was measured using the modified Boyden chamber technique (Snyderman et al.). The leading front method (Zigmond et al.) was used to assess migration of monocytes and lymphocytes through a 8 μm filter (Millipore Corporation, Bedford, Mass.). PMN chemotaxis was measured using a 3 μm filter (Millipore). The purified CAP37 protein (Example 1) used in chemotaxis assays were endotoxin-free as determined by the Limulus Amoebocyte Lysate Assay (Whittaker Bioproducts, Inc., Walkersville, Md.). The dilutions of CAP37 and N-formyl-methionyl-leucyl-phenylalanine (FMLP) were made in Geys buffer (Gibco) containing 2% endotoxin-free bovine serum albumin (BSA). Geys buffer containing 2% BSA served as the negative control, and a […] solution of FMLP as the positive control.
(§2) The chambers were incubated in a humidified atmosphere (6.2% CO2) for 2 hours when testing monocytes and lymphocytes, and for 30 minutes when testing PMNs. The filters were then removed and processed as previously described (Snyderman et al.). The cells were viewed using oil immersion and the distance the cells had migrated into the filter was determined over five different fields on the same slide (Zigmond et al.). Triplicate assays were performed for each experimental point.
The three peptides were tested for chemotactic activity towards monocytes using the modified Boyden Chamber technique described in Example 2. The monocyte chemotactic activity of each peptide fragment at concentrations ranging from 10^-7 to 10^-13 M was compared with Geys buffer (negative control), FMLP 10^-8 M (positive control) and purified CAP37 10^-9 M (positive control). […] The effect of peptide 1 on monocyte chemotaxis is illustrated in Table 2 while the effect of peptide 3 on monocyte chemotaxis is illustrated in Table 3.

rabbit monocytes = experiment: Rabbit monocyte chemotaxis; type: cell-based; settings: 1000 ng/ml (2.7×10^-8 M)
Procedure: Peripheral blood mononuclear cells from adult female rabbits, were separated on a 61% PERCOLL (Pharmacia) gradient (Chambers et al.). This technique separated the mononuclear cells from the RBC and PMNs. No further separation of monocytes from lymphocytes was undertaken with the rabbit blood.
as §1
as §2, with “The filters were then removed and processed as previously described (Snyderman et al.).” left out, “Triplicate assays were performed for each experimental point.” left out

[1] = system: Lipid A from S. minnesota R595; Lipid A from S. typhimurium Re mutant; experiment: ELISA, binding of CAP37 to Lipid A; settings: CAP37 at 120 ng/well; Lipid A 0 to 50 μg/ml
Procedure: The LPS from S. minnesota wild type, S. minnesota Re mutant, Lipid A from S. minnesota R595, and Lipid A from S. typhimurium Re mutant were applied to microtiter wells at concentrations ranging from 0 to 50 μg/ml and incubated overnight. The trays were then incubated with CAP37 at 120 ng/well for 1 hour at 37° C. The next incubation was with a rabbit antiserum against CAP37 (1:400 dilution) and the color development was as previously described (Pereira et al., 1989) and the absorbance was read at 492 nm.

B1: CAP37: granule-associated cationic protein (mol. wt. 37,000 daltons) from human PMN, 222 amino acid mature protein (protein)
chain: IVGGRKARPRQFPFLASIQNQGRHFCGGALIHARFVMTAASCFQSQNPGVSTVVLGAYDLRRRERQSRQTFSISSMSENGYDPQQNLNDLMLLQLDREANLTSSVTILPLPLQNATVEAGTRCQVAGWGSQRSGGRLSRFPRFVNVTVTPEDQCRPNNVCTGVLTRRGGICNGDGGTPLVCEGLAHGVASFSLGPCGRGPDFFTRVALFRDWIDGVLNNPGP
- Distance migrated in μm (human monocytes; Table 2): 78.4 μm
- Distance migrated in μm (human monocytes; Table 3): 73.6 μm
- monocyte chemotactic activity (in words) (human monocytes; modified Boyden chamber): as effective as FMLP; also recorded: strong chemotactic properties
- chemotactic for rabbit monocytes (rabbit monocytes): chemotactic
- binding to Lipid A (ELISA) [1]: capable of binding LPS and, in particular, Lipid A; also recorded: able to bind to Lipid A better than wild type LPS
